Test results as given in PMC8299219 (Cell, 2021).

B1: C18D5 (antibody, V domains shown)
VH: QVQLVQSGAEVKTPGASVKVSCKASGFTFTNYDLNWVRQAPGQGLEWMGWMNPKSGDTRSAQRFQGRVTMTRDTSISTAYMEMNTLRSEDTAVYYCARGRGDYSDDDFPALYLWGQGTLVTVSS
VL: not shown
B2: C163E11 (antibody, V domains shown)
VH: QVQLVESGGGVVQPGRSLRLSCAASGFTFSIYAIHWVRQAPGKGLEWVAVVSYDGSNKYYADSVRGRFTISRDNSKNTLYLQMNSLRADDTAVYYCARDSAGGYSYLFDYWGQGTLVTVSS
VL: not shown
B3: C81H7 (antibody, V domains shown)
VH: QVQLVESGGGVVQPGRSLRLSCAASGFTFSSYGMHWVRQAPGKGLEWVAVIWYDGSNKYYAESVKGRFTISRDNSKNTLYLQMNSLRAEDTAVYYCARPPSVVRHDAFDIWGQGTMVTVSS
VL: SYELTQPPSVSVSPGQTARITCSGDALPKKYAYWYQQKSGQAPVLVIYEDSKRPSGIPERFSGSSSGTMATLTISGAQVEDEADYYCYSTDSSGNHGVFGGGTKLTVL
B4: G32R10 (antibody, V domains shown)
VH: EVQLLESGGGLVQPGGSLRLSCAASGFTFSRYAMSWVRQAPGKGLEWVSAISGSGGSTYYSDSVEGRFTISRDNSKNTLYVQMNSLRAEDTAVYYCAKDAGFIPLYYFDYWGQGTLVTVSS
VL: EIVMTQSPVTLSVSPGERATLSCRASQSVSSNLAWYQQKPGQAPRLLIYGASTRATGIPARFSGSGSGTEFTLIISSLQSEDFAVYNCQQYNNWPWTFGQGTKVEIK
B5: C83B5 (antibody, V domains shown)
VH: EVQLVQSGAEVKKPGESLRISCKGSGYSFTSYWISWVRQMPGKGLEWMGRIDPSDSYTNYSPSFQGHVTISADKSISTAYLQWSSLKASDTAMYYCARQNYYDSSGHPDAFDIWGQGTMVTVSS
VL: not shown
B6: C81D9 (antibody, V domains shown)
VH: QVQLVESGGGVVQPGRSLRLSCAASGFTFSSYAMHWVRQAPGKGLEWVAVISYDGSNKYYADSVRGRFTISRDNSKNTLYLQMNSLRAEDTAVYYCARAWGGSYRGGLDYWGQGTLVTVSS
VL: DIQMTQSPSSLSASVGYRVTITCRASQSISSWLAWYQQKPGKAPKLLIYKASSLESGVPSRFSGSGSGTEFTLTISSLQPDDFATYYCQQYNSYWTFGQGTKVEIK
B7: C882C12 (antibody, V domains shown)
VH: QVQLVQSGAEVKKPGASVKVSCKASGYTFTGYYMHWVRQAPGQGLEWMGWINPNSDVTNYAQKFQGWVTMTRDTSISTAYMELSRLRSDDTAVYYCAREIPSSGYYSGGLDYWGQGTLVTVSS
VL: QSALTQPRSVSGSPGQSVTISCTGTSSDVGGYNYVSWYQQYPGKAPKLMIYDVSKRPSGVPDRFSGSKSGNTASLTISGLQAEDEADYYCCSYAGTYTGVFGGGTKLTVL
B8: G32M4 (antibody, V domains shown)
VH: QVQLVESGGGVVQPGRSLRLSCAASGFTFRSYAMHWVRQAPGKGLEWVAVISYDGSNKYYADSVKGRFTISRDNSKNTLYLQMNSLRAEDTAVYYCAKSYSGSYLAAFDIWGQGTMVTVSS
VL: EIVLTQSPGTLSLSPGERATLSCRASQIFSSSYLAWYQQKPGQAPRLLIYGASSRATGIPDRFSGSGSGTDFTLTISRLEPEDFAVYYCQQYGSSITFGQGTRLEIK
B9: C30A5 (antibody, V domains shown)
VH: QVQLVESGGGVVQPGRSLRLSCAASGFTFSTYAMHWVRQAPGKGLEWVAVISYDGSNKYYADSVKGRFTISRDNSKNTLYLQLNSLRAEDTAVYYCAKSGSGHYFAPFDYWGQGTLVTVSS
VL: not shown
B10: C83B8 (antibody, V domains shown)
VH: QVQLVQSGAEVKKPGSSVKVSCKASGGTFSSYAISWVRQAPGQGLEWMGGIIPIFGTANYAQKFQGRVTITADESTSTAYMELSSLKSEDTAVYYCASTSYYDSSGYYLDYWGQGTLVTVSS
VL: EIVLTQSPATLSLSPGERATLSCRASQSVSSFLAWYQQKPGQAPRLLIYDASNRATGIPARFSGSGSGTDFTLTISSLEPEDFAVYYCQQRSNWPPKITFGQGTRLEIK
B11: C163D1 (antibody, V domains shown)
VH: QVQLVQSGAEVKKPGSSVKVSCKASGGTFSSYAISWVRQAPGQGLEWMGGIIPIFGTANYAQKFQGRVTITADESTSTAYMELSSLRSEDTAVYYCARVSGYDSSGYSPDYWGQGTLVTVSS
VL: EIVLTQSPATLSLSPGERATLSCRASQSVSSYLAWYQQKPGQAPRLLIYDASNRATGIPARFSGSGSGTDFTLTISSLEPEDFAVYYCQQRSNWPPRLTFGGGTKVEIK
B12: C12B2 (antibody, V domains shown)
VH: QVQLVQSGAEVKKPGSSVKVSCKASGGTFSSYAISWVRQAPGQGLEWMGGIIPIFGTANYAQKFQGRVTITADESTSTAYMELSSLRSEDTAVYYCARMDYYDSSGYYLDYWGQGTLVTVSS
VL: EIVLTQSPATLSLSPGERATLSCRASQSVSNFLAWYQQKPGQAPRLLIYDASNRATGIPARFSGSGSGTDFTLTISSLEPEDFAVYYCLQRSNWPPRLTFGGGTKVEIK
B13: C102A1 (antibody, V domains shown)
VH: QVQLVQSGAEVKKPGSSVKVSCEASGGTFSSYAISWVRQAPGQGLEWMGGIIPIFGTANYAQKFQGRLTITADESTSTAFMELSSLRSEDTAVYYCARTYYYDSSGYSHDYWGQGTLVTVSS
VL: EIVLTQSPATLSLSPGERATLSCRASQSLSSFLAWYQQKPGQAPRLLIYDASNRATGIPARFSGSGSGTDFTLTISSLEPEDFAVYYCQQRTNWPPRITFGQGTRLEIK
B14: C83A10 (antibody, V domains shown)
VH: QVQLVQSGAEVKKPGSSVKVSCKASGGTFSSYAISWVRQAPGQGLEWMGGIIPIFGTAKYAQKFQGRVTITADESTSTAYLELSSLRSEDTAVYYCARVGPYDSSGYYYDYWGQGTLVTVSS
VL: EIVLTQSPATLSLSPGERATLSCRASQSVSSYLAWYQQKPGQAPRLLIYDASNRATGIPARFSGSGSGTDFTLTISSLEPEDFAVYYCQQRSNWPPMYTFGQGTKLEIK
B15: C81G1 (antibody, V domains shown)
VH: QVQLVQSGAEVKKPGSSVKVSCKASGGTFSSYGITWVRQAPGQGLEWMGGIIPIFGTANYAQKFQGRVTITADESTSTAYMDLSSLRSEDTAVYYCAILGDDYNDVDYWGQGTLVTVSS
VL: not shown
B16: C81E2 (antibody, V domains shown)
VH: not shown
VL: DIQMTQSPSSLSASVGDRVTITCRASQGISNYLAWYQQKPGKVPKLLIYAASTLQSGVPSRFSGSGSGTDFTLTISSLQPEDVATYYCQKYNSASPLTFGGGTKVEIK
B17: C30A11 (antibody, V domains shown)
VH: QVQLVQSGAEVKKPGASVKVSCKASGYTFTGYYIHWVRQAPGQGLEWMGWINPNSGVTNYAQKFQGWVTMTRDTSISTAYMELSRLKSDDTAVYYCAREMQQLEGYYYYAMDVWGQGTTVTVSS
VL: not shown
B18: C81E4 (antibody, V domains shown)
VH: QVQLVESGGGVVQPGRSLRLSCEASGFTFSNYAMHWVRQAPGKGLEWVAVISYDGSNKYYADSVKGRFTISRDNSKNTLYLQMNSLRAEDTAVYYCASCGITMVQGAHPDAFDIWGQGTMVTVSS
VL: SYELTQPPSVSVAPGKTARITCGGNNIGTKSVHWYQQKPGQAPVLVVYDDSDRPSGIPERFSGSNSGNTATLTISRVEAGDEADYYCQVWDRSSDHVLFGGGTKLTVL
B19: C63D4 (antibody, V domains shown)
VH: EVQLVESGGGLVQPGGSLRLSCAASGFTFSTYEMNWVRQAPGKGLEWVSYISSSGSTISYADSVKGRFTISRDNAKNSLYLQMNSLRAEDTAVYYCARDSPHYDYIWGSYRLRGAFDIWGQGTMVTVSS
VL: QSALTQPPSASGSPGQSVTISCTGTSSDVGGYNYVSWYQQHPGKAPKLMIYEVSKRPSGVPDRFSGSKSGNTASLTVSGLQAEDEADYYCSSYTGSNTLYVFGTGTKVTVL
B20: C163E6 (antibody, V domains shown)
VH: QVQLVESGGGVVQPGRSLRLSCAASGFTFNTYAVYWVRQAPGKGLEWVAVISYDGINKYYADSVKGRFTISRDNSKNTLYLQMNSLRPEDTAVYYCARVKSGSYKGCFDYWGQGTLVTVSS
VL: not shown
B21: G32M5 (antibody, V domains shown)
VH: EVQLLESGGGLVQPGGSLRLSCAASGFTFSSYAMSWVRQAPGKGLEWVSGISASGGSTYYADSVKGRFTISRDNSKNTLYLQMNSLRAEDTAVYYCAKDGGPYSKGPYHYYGMDVWGQGTTVTVSS
VL: QSVLTQPPSVSAAPGQKVTISCSGSSSNIGNNYVSWYQQLPGTAPKLLIYDNNKRPSGIPDRFSGSKSGTSATLGITGLQTGDEADYYCGTWDSSLSAYVFGTGTKVTVL
B22: C12I9 (antibody, V domains shown)
VH: QVQLVQSGAEVKKPGASVKVSCKASGYTFTGYYMHWVRQDPGQGLEWMGWINPNSGVTNYAQKFQGWVTMTRDTSISTAYMELSRLKSDDTAVYYCAREVGAVAGTFYYGLDVWGQGTTVTVSS
VL: QSALTQPRSVSGSPEQSVAISCTGTSSDVGGNNYVSWYQQHPGKAPKLMIYDVSKRPSGVPDRFSGSKSGNTASLTISGLQAEDEADYYCCSYAGSYTFGVVFGGGTKLTVL
B23: C41N6 (antibody, V domains shown)
VH: QVQLVESGGGVVQPGGSLRLSCAASGFTFSSYGMHWVRQAPGKGLEWVAFIRYDGSNNYYADSVKGRFTISRHNSKNTLYLQMNSLRAEDTAVYYCAKVTITIFGVVIYGMDVWGQGTTVTVSS
VL: not shown
B24: C107A2 (antibody, V domains shown)
VH: EVQLVESGGGLVQPGGSLRLSCAASEFTVNNNYMSWVRQAPGKGLEWVSIIYSGGSTYYADSVKGRFTISRDNSKNTLYLQMNSLRAEDTAVYYCARNHITMVRGVIKYQDYWGQGTLVTVSS
VL: not shown
B25: C12A8 (antibody, V domains shown)
VH: QVQLVQSGAEVKKPGASVKVSCKVSGYTLTELSMHWVRQAPGKGLEWMGGFDPEDGETIYAQKFQGRVTMTEDTSTDTAYMELSSLRSEDTAVYYCATVSWPNYYDGTLYYFDYWGQGTLVTVSS
VL: DIQMTQSPSSLSASVGDRVTITCRASQGIRNDLGWYQQKPGKAPKRLIYAASSLQSGVPSRFRGSGSGTEFTLTISSLQPEDFATYYCLQHYSYPFTFGPGTKVDIK

Molecular target: SARS-CoV-2 S ectodomain trimer, prefusion-stabilized, 2P variant (Wrapp et al., 2020) (SARS-CoV-2, Wuhan-Hu-1, UniProt P0DTC2, stabilised)

| Binder | binding result |
| --- | --- |
| B1 | binds |
| B2 | binds |
| B3 | binds |
| B4 | binds |
| B5 | binds |
| B6 | binds |
| B7 | binds |
| B8 | binds |
| B9 | binds |
| B10 | binds |
| B11 | binds |
| B12 | binds |
| B13 | binds |
| B14 | binds |
| B15 | binds |
| B16 | binds |
| B17 | binds |
| B18 | binds |
| B19 | binds |
| B20 | binds |
| B21 | binds |
| B22 | binds |
| B23 | binds |
| B24 | binds |
| B25 | binds |
